Source: patent US20130059772A1, “Use of Repeat Sequence Protein Polymers in Personal Care Compositions” (DANISCO US INC., priority 2003, published 2013)

How the values were obtained:
[1] = test system: Fibroblasts (HDFn Cell Line); experiment: Initial pilot cell viability dose response (MTT assay); conditions: for cell viability, percent of untreated cells: 48 hours
Procedure: Initial screening was conducted to identify a test range suitable to determine the effect of a broad range of test material concentrations on cell viability. […] Cultured fibroblasts were exposed to the test materials for 48 hours and then changes in cell viability were determined using an MTT assay (i.e., a colorimetric analysis of the metabolic activity of the cultured cells, described in greater detail below).
The purple crystals are extracted from the cells with isopropanol and the amount of crystal formation quantified spectrophotometrically. […] A decrease in color intensity can be a sign of toxicity.
Fibroblasts (Cascade Biologics, HDFn Cell Line, lot#1C0914) were seeded into the individual wells of either a 96-well plate (for the initial pilot work to determine concentration effects on cell viability) in 100 μl of Fibroblast Growth Media (FGM) or in 12-well plates (for the measurement of collagen, elastin and MMP-1) in 1.0 ml of FGM and incubated overnight at 37±2° C. and 5±1% CO2. On the following day, the medium was removed via aspiration to eliminate any non-adherent cells and replaced with fresh FGM. The cells were grown until confluent, with a media change every 48 to 72 hours. Upon reaching confluency, the cells were treated for 24 hours with Dulbecco's Modified Essential Media (DMEM) supplemented with 1.5% FBS to wash out any effects from the growth factors included in the normal FGM. After this 24-hour wash out period, the cells were treated with the test materials at the specified concentrations dissolved in DMEM with 1.5% FBS. Untreated cells (negative controls) received DMEM with 1.5% FBS. The cells were incubated for 48 hours and at the end of the incubation period cell culture medium was either discarded (pilot work) or collected and stored frozen at −75° C. The test materials were tested in triplicate.
After the 2-day incubation, the cell culture medium was removed and the fibroblasts were washed twice with PBS to remove any remaining test material. After the final wash, either 100 μl (96-well plates) or 300 μl (12-well plates) of DMEM supplemented with 0.5 mg/ml MTT were added to each well and the cells were incubated for 1 hour at 37±2° C. and 5±1% CO2. After the incubation, the DMEM/MTT solution was removed and the cells were washed again once with PBS and then either 100 μl (96-well plates) or 1 ml (12-well plates) of isopropyl alcohol were added to each well to extract the purple formazin crystals. For the 12-well plates, two hundred microliters of the isopropyl extracts was transferred to a 96-well plate. The 96-well plates were read at 540 nm using isopropyl alcohol as a blank. The mean MTT absorbance value for the negative control cells was calculated and used to represent 100% value for cell viability. The individual MTT values from the cells undergoing the various treatments were then divided by the mean value for the negative control cells and expressed as a percent, to determine the change in cell viability caused by each treatment.

elastin = experiment: Elastin assay (Fastin colorimetric assay of culture media); assay type: cell-based, human; conditions: 48 hours, spent fibroblast media, untreated 69 ± 2
Procedure: Elastin is released by fibroblasts (soluble elastin) into the extracellular space where it is then cross-linked to other elastin proteins to form an extensive network of fibers and sheets (insoluble elastin). Soluble elastin can be readily measured from cell culture medium via a colorimetric assay.
(§1) The test materials were tested in triplicate.
In these experiments, the Biocolor Fastin Elastin Assay kits were used. A 50 μl aliquot of sample material (cell culture medium for soluble elastin) was mixed with 1.0 ml of cold Fastin Precipitating Reagent in a 1.5-ml microcentrifuge tube. In addition to the spent media samples from the fibroblasts, 50 μl aliquots of the test materials diluted into fresh culture media at the concentrations used in the study were also assayed for elastin content. The sample/Fastin Precipitating Reagent mixture was then incubated overnight in an ice water bath to precipitate the elastin. On the following day, the cold microcentrifuge tubes were spun at 10,000×g for 10 minutes to pack the precipitated elastin and the supernatant was removed via careful aspiration.
One (1) ml of Fastin Dye Reagent, along with 100 μl of 90% saturated ammonium sulphate was added to each tube. The microcentrifuge tubes were mixed with a vortex mixer and then allowed to incubate for at least 60 minutes at room temperature, with gentle mechanical agitation. The Fastin Dye Reagent interacts with unique amino acid sequences in the elastin protein. This elastin-dye complex precipitates in the presence of ammonium sulphate. After the incubation was over, the microcentrifuge tubes were spun at 10,000×g for 10 minutes to separate the precipitated elastin-dye complex from the unbound dye. The supernatant was carefully removed and the tubes were inverted to allow any residual supernatant to drain out.
To release the elastin-bound dye, 1.0 ml of Fastin Destain reagent was added to each microcentrifuge tube. The tubes were capped as quickly as possible, as this reagent contains ammonia and methanol. The tubes were then vortexed. The absorbance of this solution was measured by a plate reader at 490 nm (200 μl volume read).
An elastin standard curve was generated using 12.5, 25, and 50 μg aliquots of an Elastin Standard into microcentrifuge tubes (in duplicate). These samples were treated as described above (Elastin Assay) and the absorbance values were used to generate a standard curve of known concentrations. To derive the standard curve for the elastin assay, the absorbance was plotted against the elastin concentration in μg/ml for the standards. […] Mean absorbance values for the test materials and untreated samples were then used to estimate the amount of elastin present in each sample.

[2] = test system: procollagen type I C-peptide; experiment: Procollagen assay (type I C-peptide ELISA of fibroblast culture media); assay type: cell-based, human; conditions: 48 hours, untreated 873 ± 111
From the text: Collagen is synthesized as part of a much larger procollagen peptide. As the peptide is processed to form a mature collagen protein, the propeptide portion is cleaved off (type I C-peptide). Both the mature collagen protein and the type I C-peptide fragment are then released into the extracellular environment and accumulate in the culture media. Since there is a 1:1 stoichiometric ratio between the two parts of the procollagen peptide, assaying for type I C-peptide will reflect the amount of collagen synthesized. Type 1 C-peptide can be assayed via an ELISA based method.
as §1
Takara procollagen type IC-peptide ELISA kits were used in these experiments. A series of type I C-peptide standards was prepared ranging from 40 ng/ml to 640 ng/ml. An ELISA microplate was then prepared by removing any unneeded strips from the plate frame. To each well in the plate 100 μl of peroxidase-labeled anti procollagen type I-C peptide was added, followed by 20 μA of either sample (tissue culture media) or standard. The microplate was covered and allowed to incubate for 3±0.25 hours at 37° C. After the incubation period, each well was aspirated and washed three times with 400 μl of wash buffer. After the last wash was removed, 100 μl of peroxidase substrate solution (hydrogen peroxide containing tetramethylbenzidine as a chromagen) were added to each well and the plate was incubated for 15±5 minutes at room temperature. After the incubation period, 100 μA of stop solution (1 N sulfuric acid) was added to each well and the plate was read using a microplate reader at 450 nm. To quantify the amount of procollagen present, a standard curve was generated using known concentrations of procollagen type 1-C peptide. […] Mean absorbance values for the test materials and untreated samples was then used to estimate the amount of procollagen type 1-C peptide present in each sample.

MMP-1 = MMP-1 assay (fluorometric ELISA of fibroblast culture media); assay type: cell-based, human; conditions: for MMP-1 Activity: 48 hours, untreated 0.11 ± 0.05
Procedure: MMP-1 is a zinc and calcium dependent endopeptidase that is produced and released from both dermal fibroblasts and keratinocytes, and functions to break down collagens located in the extracellular matrix. Active MMP-1 released into the culture media can be assayed using a fluorescence-based ELISA. […] To quantify the active MMP-1 a fluorogenic substrate linked to a quencher molecule is added and any active MMP-1 present will cleave the peptide linkage between the fluorophore and the quencher molecule. This cleavage will eliminate the quencher molecules ability to inhibit the fluorescent signal of the fluorophore allowing a fluorescent signal that will be proportional to the amount of active MMP-1 present.
as §1
R&D Products MMP-1 Fluorokine E fluorometric ELISA kits were used in these experiments. A series of MMP-1 standards was prepared ranging from 0.39 ng/ml to 25 ng/ml and an ELISA microplate was prepared by removing any unneeded strips from the plate frame. In each well, 200 μA of Assay Diluent RD1-64 and 50 μA of each sample were added. For the standards, 100 μl of Assay Diluent RD1-64 and 150 μl of each respective standard were added. The plate was incubated for 3±0.25 hours at room temperature on a rocking platform. At the end of the incubation period, each well was aspirated and then washed four times with 400 μl of wash buffer. […] After the incubation period, the plate was washed four times as described above. After the last wash, 200 μl of substrate solution were added to each well and the plate was incubated for 17-20 hours at 37±2° C. (protected from light). At the end of the incubation period, the fluorescence intensity was measured (excitation 320 nm, emission 405 nm) using a fluorometer using a 20 mS integration time. To quantify the amount of MMP-1 activity, a standard curve was generated using known activity levels of MMP-1. […] Mean absorbance values for the test materials and untreated samples were then used to estimate the amount of MMP-1 activity present in each sample.

B1: GC2596-26-D: SELP47K modified with two units of ALSYP (SEQ ID NO:36) peptides in each SELP47K unit; SEQ ID NO:32 (Example 4) (protein)
chain: MDPVVLQRRDWENPGVTQLNRLAAHPPFASDPMGAGAGSGAGAGSALSYPGVGVPGVGVPGVGVPGVGVPGKGVPGVGVPGVGVPGVGVPALSYPGAGAGSGAGAGSGAGAGSGAGAGSALSYPGVGVPGVGVPGVGVPGVGVPGKGVPGVGVPGVGVPGVGVPALSYPGAGAGSGAGAGSGAGAGSGAGAGSALSYPGVGVPGVGVPGVGVPGVGVPGKGVPGVGVPGVGVPGVGVPALSYPGAGAGSGAGAGSGAGAGSGAGAGSALSYPGVGVPGVGVPGVGVPGVGVPGKGVPGVGVPGVGVPGVGVPALSYPGAGAGSGAGAGSGAGAGSGAGAGSALSYPGVGVPGVGVPGVGVPGVGVPGKGVPGVGVPGVGVPGVGVPALSYPGAGAGSGAGAGSGAGAGSGAGAGSALSYPGVGVPGVGVPGVGVPGVGVPGKGVPGVGVPGVGVPGVGVPALSYPGAGAGSGAGAGSGAGAGSGAGAGSALSYPGVGVPGVGVPGVGVPGVGVPGKGVPGVGVPGVGVPGVGVPALSYPGAGAGSGAGAGSGAGAGSGAGAGSALSYPGVGVPGVGVPGVGVPGVGVPGKGVPGVGVPGVGVPGVGVPALSYPGAGAGSGAGAGSGAGAGSGAGAGSALSYPGVGVPGVGVPGVGVPGVGVPGKGVPGVGVPGVGVPGVGVPALSYPGAGAGSGAGAGSGAGAGSGAGAGSALSYPGVGVPGVGVPGVGVPGVGVPGKGVPGVGVPGVGVPGVGVPALSYPGAGAGSGAGAGSGAGAGSGAGAGSALSYPGVGVPGVGVPGVGVPGVGVPGKGVPGVGVPGVGVPGVGVPALSYPGAGAGSGAGAGSGAGAGSGAGAGSALSYPGVGVPGVGVPGVGVPGVGVPGKGVPGVGVPGVGVPGVGVPALSYPGAGAGSGAGAGSGAGAGSGAGAGSALSYPGVGVPGVGVPGVGVPGVGVPGKGVPGVGVPGVGVPGVGVPALSYPGAGAGSGAGAGSGAGAMDPGRYQDLRSHHHHHH
modifications: SELP 47K-P4
[1]; 0.0014%
  cell viability, percent of untreated cells: 130 ± 15%
[1]; 0.007%
  cell viability, percent of untreated cells: 138 ± 9%
[1]; 0.014%
  cell viability, percent of untreated cells: 145 ± 12%
[1]; 0.07%
  cell viability, percent of untreated cells: 145 ± 11%
[1]; 0.14%
  cell viability, percent of untreated cells: 154 ± 24%
[1]; initial dose response, summary in words
  effect on the number of viable cells: strongly stimulate increases in the number of viable cells
elastin; 0.0014%
  Elastin: 72 ± 12 μg/ml media
elastin; 0.007%
  Elastin: 69 ± 4 μg/ml media
elastin; 0.014%
  Elastin: 68 ± 10 μg/ml media
[2]; 0.0014%
  Type-1 C Peptide: 894 ± 156 ng/mL
[2]; 0.007%
  Type-1 C Peptide: 908 ± 94 ng/mL
[2]; 0.014%
  Type-1 C Peptide: 829 ± 171 ng/mL
MMP-1; 0.0014%
  MMP-1 Activity: -0.01 ± 0.01 ng/mL
MMP-1; 0.007%
  MMP-1 Activity: -0.02 ± 0.02 ng/mL
MMP-1; 0.014%
  MMP-1 Activity: -0.03 ± 0.01 ng/mL
MMP-1; summary in words
  effect on MMP-1 activity: almost complete loss of detectable MMP-1 activity
